Source: the DeepSol protein solubility set

Test: soluble on expression in E. coli; label from the status in PepcDB or PDB records

| Sequence | soluble on expression in E. coli |
| --- | --- |
| MLTFKYLLASLLILLVSSQTWGQQSYGNSNQGYGQQQQGFSGFGQGSATNRQGMTGQGLLESSYQQGYGQNQGSMQGYSQQGYGGNSQQDYGYSQSQGSGMGVQGYGGSSQSYGQQAFAQQQRPQQGFQSNGFSGQQASGSMNSFGGQGGYGQNQNGFGGQSGFSGQSGWGSNSLSSANSNGNNNQGSSSGYQNNQGRHQGQGGGHSSSSNSVMSNNGYSSNSGYGNNNGPTPSFLNNVSSSAAQDYYNIVNNKSLTTNQINEQASNWASANSVQAQYIQYETNRSAIHTQATQNVSDIINNLATVQASIEGIQSNTSSSENDRQSAFQALQQAHPMEYSVLTSLQNQHEQTQYARMGSNGNSNSNYGNSNFNSNYGNNGYNHNGNNYFESTTATSAATKKKTTKATSG | not soluble |
| MLTIKNLHASVHNNQILRGVNLTINAGEVHAIMGPNGSGKSTLASVLAGREDYAIVDGDVRYFDEDLFELSPEDRAAKGLFLAFQYPVEIPGVNNLYFLKTAVNSIRKTRGEAPFDAIDLMGLVKEKLALVDMDDKFLKRSVNEGFSGGEKKRNEILQMLMLDPRLAILDETDSGLDIDALQTVAKGVNSLRNKERAILLVTHYQRLLDYIKPDFVHVLVNGRIVLSGDQSLALELEKKGYGWL | soluble |
| MLTPMFCLAHISDMHLSPLPKPSFFELFGKRLTGYLNWQKKRKGQMATNTLETLIEALKKKNPDHLVISGDLVNLALDKEFEQARNWLLNQGQPQNISLTFGNHDAYVRGAFQKACTLFQPWITGDFPQKNAPPFPYIRIRKNVAIIGASSAIATPPFQASGYFGKMQAQALSQLLNEAARRNLFRVIMIHHPPFHHATSWHKKLWGIERFLEVIKHHGCELILHGHTHLPTLNIIKGKMGKIPIVGVASAAQAFGDTPPPAGFNFFSIEQFNQQWHCQLQRYSLINQNNEVACTETIDLLEHHHHHH | not soluble |
| MLTRTDGKGSKVLLIAAMDTKGTEARYIESWLAKAGFTTLIMDMGIRGKRPGPVAVTRDEVLRAAGKTWDDIQNVTSEGDAVDIMISGGVKCALALYKADLIQGVISLGGTMGTTLGTGVMRAFPIGFPKVMISTIAAKDTEAFIGNMDIFMLNSVSDLAGLNRITRKVLRNGALAIAGLVREREFHDEFSRPLAVLTTLGTTEATAARMRIHFEAWGYESVTFHTTGTGGQAMERMVNFEPVSAVVDLSLHELIDHHFGGAFDPGPERGRAALQKGIPTVIVPGNIDFLVTGPMAQAQIYFPGRRGHKHNANITCVRTSLEEIQRIAEIMAGYCNESTGPVAVLVPMKGFSCLDHEDGPQPDPEGPRVFAETFARALTRTIHFETVPLHINDEAFSEVIVGALQKIGGLRKIEADRLPSRQPATWSPYSSVHTLDRFSGNQHTTTETTGDALAALEHHHHHH | not soluble |
| MLTVALLALLCASASGNAIQARSSSYSGEYGSGGGKRFSHSGNQLDGPITALRVRVNTYYIVGLQVRYGKVWSDYVGGRNGDLEEIFLHPGESVIQVSGKYKWYLKKLVFVTDKGRYLSFGKDSGTSFNAVPLHPNTVLRFISGRSGSLIDAIGLHWDVYPTSCSRC | soluble |
| MLTVTFTVSNTGDRAGAAVPQVYPGFPNTTIDRCVRELKAFRRVELEPGQRQTVTVALTRRDLSYWDILPHPLRSYAVGSILEHHHHHH | not soluble |
| MLVCNPYEVVIHGTTSSGKIFRPSDWAERLCGILSSFTKDHRLSYSKWVRPILVDNIRCVAVDKKLETDNPQMFRFLMDFAADNDLRVIDCKALLEEREQGGQNNPADEHVMLAQAIEEKHAAEKAQEQTASGASYVLREIGADDTATAFAALSVLRSALTDINRFTEQINKVQRPQGYRLLGIFEEGKHNAVAVCGFREACTLASGRHIHIDDIVTLPQSRRKGYASRLLEEVRKIGAETGVTKIHLNVHVNHDRADAHRLYFKNGFEICAYHFRCDPK | not soluble |
| MLVGHARKDITPTEPFYLLGYKTELRNQPAKGIHDHIYINALLFYDDKGNECFLATGDLLELEDIVAADIRQKISRKYGIAMDHVIIGVTHDHHSVRDYHRTWEFGKFSQTYYDFFVDSFVQAFEDCRETLTDVTVQYGQQEIFGFYSNRNHANKPSDNAVSVIKFIADGHAVAGIVNMAVHSTVLGPDNQYLTADLAGNTCTKLAKEWGFFPLMLIGCAADSSNRYERQGRDFAELERASSGLAVAISKIQTPKRLCLGKIQTLTLSHEVVNDKPIYDRKLRTMINDLRSGVIKAIGSQSVEAIVEKCEDQLNKPQFHDLLSLQLLDIGELRLFVFPGELASAGAKKLTSFDRLEHHHHHH | not soluble |
| MLYDLAKQRKTVRKFKEEKPSIEKLMYCLKVANEAPSGMNAQPWRFLVVKDEETKRQIRETCEKAEKDFYENVRGKLKEWLNENSFNWKKPFLEEAPYLLLVFSKKDAPYSRESVWLAIGYLLLALEEQGLGTVPYTPPNPNELTKIVNTPSDLRFEVILPVGYPDDPKPKYPREEMKVSFNHF | not soluble |
| MLYNMDERFEIKDIVAREVIDSRGNPTVEVEVITKGNGYGSAIVPSGASTGTHEALELRDKEKRFGGKGVLMAVENVNSIIRPEILGYDARMQREIDTIMIELDGTPNKSRLGANAILAVSLAVAKAAAATAKIPLYKYLGGFNSYVMPVPMMNVINGGKHAGNDLDLQEFMIMPVGATSISEAVRMGSEVYHVLKNVILEKYGKNAVNVGDEGGFAPPLKTSREALDLLTESVKKAGYEDEVVFALDAAASEFYKDGYYYVEGKKLTREELLDYYKALVDEYPIVSIEDPFHEEDFEGFAMITKELDIQIVGDDLFVTNVERLRKGIEMKAANALLLKVNQIGTLSEAVDAAQLAFRNGYGVVVSHRSGETEDTTIADLSVALNSGQIKTGAPARGERTAKYNQLIRIEQELGLSKYAGRNFRCPF | soluble |
| MMDAKALWQRYQDWLYYHEGLGLYLDISRMRFDDSFVESLQSKFDKAFADMAALEKGAIANPDENRMVGHYWLRNPDLAPSPELTQEIVQTLEQIEAFADQVHTGAVHPPKESRFTDIISIGIGGSALGPQFVAEALSPDSPPLNIHFIDNTDPRGIDRVLSQINNLASTLVLVISKSGGTPEPRNGMIEVKKAYAAKNLDFSKYAVAVTGPDSNLDKVAKSEGWLARFSMYDWVGGRTSEMSAVGLVPAALQGIDIRAMLEGAKEMDDATRVADLKNNPAALLALAWYYSGKGKGGKDMVVLPYKDSLLLFSRYLQQLVMESLGKEKDLDGKIVYQGIAVYGNKGSTDQHAYVQQLREGVPNFFATLIEVLEDRQRKSPEIDPGVTSGDYLCGFLLGTRQALYENNRDSITVTIHQVNPRTVGALIALYERAVGLYASLVNINAYHQPGVEAGKKAAAVILDLQQKVMTVLQTERKALSISEIADKAGASEQIEAIYKILRHLHTNNRGVVLTGDLAKPGSLTVSLS | not soluble |
| MMEDNKMTESEMKFRDTTIRNFFDKEDRLKSIPGQKKKKLVLLEHLISKLNAENQYTEKEINTFIKQYHDDFCTIRREFIVQGFMNREDNMYCINGREVWTKWEELK | not soluble |
| MMEKSTLLQIKRDIETCVGQKIQLKANKGRKKAFIREGIVENTYPSIFVVKFENDYDTVRRVSYSYTDILTKAVEITVCEDNRKIQVS | soluble |
| MMEPTIHLRQAKAGDIPAILEIEQECFQEDSFSREQFVYLICRSKGTFYVVVEQERIIAYVSLLFHAGTRYLRIYSIAVHPDCRGRKLGQLLMERTIETALDCRAVKITLEVKESNTPAIKLYMKNGFIPVGVKPNYYHDGSDAIYMQRHM | not soluble |
| MMEVLTGPERRRRWSVEEKLALVRESFEPGKTVSMVARQHGVNPNQVFHWRKLYQDGSLSAVSAGEEVVPASELAEALKLVRVLQRMLGKKTMENEILREAVEYGRAKKWIARSPSLPGDDQLEHHHHHH | not soluble |
| MMFPAKIISLRGGATEAIVSADLDRKTELAQETATRWFERRLSLRSPLDPPLPERPGRPEKPELVPPTAVERRSLHSVKGRIALLHAIAHIELNAVDLALDIVARYASEPVPHSFFDGWMQVAFEEAKHFRLVRDRLVSLGADYGDLPAHDGLWQAAHSTRNDLTARLAVVPLILEARGLDVTPSLQAKMRETGDLESAAVLDVIYNDEKGHVAIGAKWFRFLCAREKKDPAATFRQLVRSNFRGPLKPPFNDLARAEAGLTPSFYRSLTSVSHSLEHHHHHH | not soluble |
| MMGSKMASASRVVQVVKPHTPLIRFPDRRDNPKPNVSEALRSAGLPSHSSVISQHSKGSKSPDLLMYQGPPDTAEIIKTLPQKYRRKLVSQEEMEFIQRGGPE | soluble |
